Measurements reported in publication PMC3787391.

Target: ligated complex of zebrafish PlexinC1_(cyto) and human Rap1B with the 24-residue linker and the LPETGG sortase recognition motif (human | zebrafish) (UniProt P61224)
Test: AUC; sedimentation velocity, with 2 mM AlFx; 0.5, 4, 8 and 20 μM; 10 mM Tris pH 8, 50 mM NaCl, 2 mM TCEP, 2 mM MgCl2; 20°C, 42,000 rpm; c(s) analysis; monomer to dimer

ligated complex of zebrafish PlexinC1_(cyto) and human Rap1B with the 24-residue linker and the LPETGG sortase recognition motif (from UniProt P61224 2-166; A0A8M3ARP5 552-1147)
stoichiometry N: 2
